Assay results from US8597922B2, “Methods and compositions for producing olefins” (LS9, Inc., priority 2007, dated 2013).

Columns and labels:
[1] = In vitro α-olefin synthesis by purified His-tagged protein with hydrogen peroxide; type: biochemical; settings: 200 μL purified protein, 200 μM hydrogen peroxide, 200 μM potassium hexadecanoate, room temperature overnight
Method: E. coli C41 DE3 (ΔfadE) cells were transformed with pET15b-orfKRH21570 using routine transformation techniques. Protein expression was carried out by first inoculating 5 mL of LB broth supplemented with 100 mg/L carbenicillin with a colony of the E. coli strain which was followed by shaking the cells overnight at 37° C. to produce a starter culture. This starter culture was used to inoculate 0.5 L of LB media supplemented with 100 mg/L of carbenicillin. The culture was shaken at 37° C. until an OD600 value of 0.6 was reached, after which it was induced with 1 mM IPTG and 0.5 mM delta-aminolaevulinic acid. The culture was then shaken at 25° C. for approximately 18 h. The protein was purified as described in Example 12.
To assay the activity of ORF_KRH21570, 200 μL of purified protein was incubated with 200 μM of hydrogen peroxide and 200 μM of potassium hexadecanoate. As a negative control, the same reaction was conducted, but without the addition of either purified protein (100 mM sodium phosphate pH 7.2 was used in its place) or free fatty acid. The reactions were performed in duplicates and incubated at room temperature overnight. […] Trimethylanilinium hydroxide was added to the ethyl acetate layer at a 1:1 ratio and the extracts analyzed by GC/MS using the MAR_splitless_short method. […]

[2] = Specific activity of α-olefin and α/β-hydroxy fatty acid formation by purified enzymes; type: biochemical; settings: for specific activity for 1-pentadecene formation: 500 μM H2O2, 200 μM potassium hexadecanoate, pH 7.2, room temperature, comparison between enzymes
Method: The specific activity of α-olefin formation as well as α-(2) and β-(3)hydroxy fatty acid formation were determined for ORF880, CYP152A1, and CYP152A1 Q85H (see Examples 12 and 16). An E. coli BL21 strain (DE3) (Invitrogen) was transformed with either pET15b-orf 880, pET15b-cyp152A1, and pET15b-cyp152A1 Q85H using routine chemical transformation techniques. Protein expression was carried out by first inoculating a colony of the E. coli strain in 5 mL of LB media supplemented with 100 mg/L of carbenicillin and shaken overnight at 37° C. to produce a starter culture. This starter culture was used to inoculate 0.5 L of LB media supplemented with 100 mg/L of carbenicillin. The culture was shaken at 37° C. until an OD600 value of 0.6 was reached. The culture was placed on ice for 10 min before IPTG was added to a final concentration of 250 μM. The culture was shaken at 25° C. for approximately 18 h, and then centrifuged at 3,700 rpm for 20 min at 4° C. The pellet was then resuspended in 10 mL of buffer containing 100 mM sodium phosphate buffer at pH 7.2 supplemented with Bacterial ProteaseArrest (GBiosciences). The cells were then sonicated at 12 W on ice for 9 sec with 1.5 sec of sonication followed by 1.5 sec of rest. This procedure was repeated 5 times with one min intervals between each sonication cycle. The cell free extract was centrifuged at 10,000 rpm for 30 min at 4° C. 5 mL of Ni-NTA (Qiagen) was added to the supernatant, and the mixture was gently stirred at 4° C. The slurry was passed over a column removing the resin from the lysate. The resin was then washed with 30 mL of buffer containing 100 mM sodium phosphate buffer at pH 7.2 plus 30 mM imidazole. Finally, the protein was eluted with 15 mL of 100 mM sodium phosphate buffer at pH 7.2 plus 250 mM imidazole. The protein solution was dialyzed with 200 volumes of 100 mM sodium phosphate buffer at pH 7.2 with 20% glycerol. Protein concentration was determined using the Bradford assay (Biorad). 578 μg/mL of ORF880, 865 μg/mL of CYP152A1, and 653 μg/mL of CYP152A1 Q85H protein was obtained.
To determine the specific activity with potassium hexadecanoate, the following reactions were set-up where each time point consisted of 500 μL. Each reaction contained of 500 μM H2O2, 200 μM of potassium hexadecanoate, 100 mM sodium phosphate buffer at pH 7.2, and protein at the following concentrations: ORF880-0.23 or 0.46 μM; CYP152A1-8.65, 17.3, or 34.6 μM; CYP152A1 Q85H-6.53, 13.06, or 26.12 μM. The reactions were carried out at room temperature and time points were taken at 0, 1, 3, 5, 7, 10, 14, and 20 minutes. Reactions were quenched with 50 μL of 12 M HCl and then extracted with 200 μL of ethyl acetate. 50 μL of this extract was then reacted with 50 μL N,O-Bis(trimethylsilyl)trifluoroacetamide with trimethyl-chlorosilane (Aldrich). Samples were analyzed using GC/MS using the following parameters: run time: 20 min; column: HP-5-MS Part No. 190915-433E (length of 30 meters; I.D.: 0.25 mm narrowbore; film: 0.25 μM); inject: 1 μL Agilent 6850 inlet; inlet: 300° C. splitless; carrier gas: helium; flow: 1.3 mL/min; oven temp: 100° C. hold 5 min, 320° C. at 20° C./min, 320° C. hold 5 min; det: Agilent 5975B VL MSD; det. temp: 300° C.; scan: 50-500 M/Z. Calibration curves were generated using 1-pentadecene, α(2)-hydroxyhexadecanoic acid, and β(3)-hydroxyhexadecanoic acid dissolved in ethyl acetate and derivatized as described herein.
Based upon this analysis, product formation was determined to be linear within the first three minutes. The specific activities for each enzyme concentration in the linear range were averaged for a given reaction (e.g., decarboxylation, α-hydroxylation, or β-hydroxylation). FIG. 21 summarizes the results. The specific activity for 1-pentadecene formation was similar for ORF880 and CYP152A1. Mutating the glutamine 85 residue to a histidine increased the specific activity of 1-pentadecene formation (i.e., increased fatty acid decarboxylase activity). […]

E. coli C41 ΔfadE = type: cell-based; settings: with 0.05% stearic acid feeding
Method: Genomic DNA encoding C. efficiens YS-134 (DSMZ44549) orfCE2459 (SEQ ID NO:6) was cloned into the NcoI and EcoRI sites of vector OP-80 (pCL1920 derivative) under the control of the Ptrc promoter. The resulting construct was then transformed into E. coli C41 ΔfadE.
The cells were grown at 37° C. in M9 minimal media supplemented with 20 μg/mL uracil, 1% glucose (w/v), and 100 μg/mL spectinomycin. When the culture reached an OD600 of 0.8 to 1.0, it was induced with 1 mM IPTG supplemented with 0.5 mM delta-aminolaevulinic acid (heme biosynthesis precursor), and 0.05% stearic acid (as a substrate for orfCE2459). The temperature was shifted to 25° C. and cells were allowed to grow for an additional 18-20 h Cells from 1 mL of culture were resuspended with 100 μL of methanol, sonicated for 30 min, and extracted with 300 μL of ethyl acetate. After vortexing for 15 min, 300 μL of water was added, and the mixture was vortexed for another 15 min before centrifugation at 15,000 rpm for 10 min. The solvent layer was analyzed by GC-MS.
Genomic DNA encoding Kokuria rhizophila DC2201 orfKRH21570 (SEQ ID NO:8), which was codon optimized (SEQ ID NO:9) for expression in E. coli, was cloned into the NdeI and XhoI sites of vector OP-183 (pACYC177 derivative) under the control of the Ptrc promoter. The resulting construct was then transformed into E. coli C41 ΔfadE. The cells were grown, extracted, and analyzed as in described in Example 7.
The genomic DNA encoding Bacillus subtilis fatty acid hydroxylase, Cyp152A1 (SEQ ID NO:13) or P450Bsβ, was cloned into the NdeI and XhoI sites of vector OP-183 (pACYC177 derivative) under the control of the Ptrc promoter. The construct was used as a template to introduce a mutation at position 85 changing the Glu to His using the following primer: GTTAATGCGATTCAcGGAATGGATGGC. The resulting constructs were then transformed into E. coli C41 (ΔfadE). The cells were grown at 37° C. in M9 minimal media supplemented with 20 μg/mL uracil, 1% glucose (w/v), and 100 μg/mL carbenicillin. When the culture reached OD600 of 0.8-1.0, it was induced with 1 mM IPTG; supplemented with 0.5 mM delta-aminolaevulinic acid (heme biosynthesis precursor) and 0.05% stearic acid (as a substrate for Bsb). The temperature was shifted down to 25° C. and cells were allowed to grow for an additional 18-20 h. Cells from 1 mL of culture was resuspended with 100 μL of methanol, sonicated for 30 min, and extracted with 300 μL of ethyl acetate. After vortexing the extract for 15 min, 300 μL of water was added, vortexed for another 15 minutes before centrifugation at 15,000 rpm for 10 minutes. The solvent layer was analyzed by GC-MS.

[3] = compared with the wild-type version of CYP152A1

Row | Molecule | α-olefin formed from hexadecanoic acid [1] | specific activity for 1-pentadecene formation [2] | α-olefin produced (E. coli C41 ΔfadE) | rate of α-hydroxyhexadecanoic acid formation [2, 3] | rate of β-hydroxyhexadecanoic acid formation [2, 3]
1 | orf_Mpop1292: ORF880 homolog P450 enzyme from Methylobacterium populi, ZP_02200540 (protein, listed as Methylobacterium populi) MPAAIATHRFRKARTLPREPAPDSTLALLREGYGFIRNRCRRHDSDLFAARLLLSPVICMSGAEAARHFYDGHRFTRRHALPPTSFALIQDHGSVMVLDGAAHLARKAMFLSLVGEEALQRLAGLAERHWREAVSGWARKDTVVLLDEAHRVLTAAVCEWVGLPLGPTEVDARAREFAAMIDGTGAVGPRNWRGHLYRARTERWVRKVIDEIRSGRRDVPPGAARTIAEHQDADGQRLDRTVAGVELINVLRPTVANARYIVFAAMALHDHPHQRAALADGGEAAERFTDEVRRFYPFIPFIGGRVRAPFHFGGHDFREGEWVLMDLYGTNRDPRLWHEPERFDPDRFARETIDPFNMVSHGAGSARDGHRCPGEGITRILLRTLSRQLAATRYTVPPQDLTLDLAHVPARPRSGFVMRAVHAP | 1-pentadecene |  |  |  | 
2 | CYP152A1: Bacillus subtilis fatty acid hydroxylase, NP_388092 (protein, listed as Bacillus subtilis) MNEQIPHDKSLDNSLTLLKEGYLFIKNRTERYNSDLFQARLLGKNFICMTGAEAAKVFYDTDRFQRQNALPKRVQKSLFGVNAIQGMDGSAHIHRKMLFLSLMTPPHQKRLAELMTEEWKAAVTRWEKADEVVLFEEAKEILCRVACYWAGVPLKETEVKERADDFIDMVDAFGAVGPRHWKGRRARPRAEEWIEVMIEDARAGLLKTTSGTALHEMAFHTQEDGSQLDSRMAAIELINVLRPIVAISYFLVFSALALHEHPKYKEWLRSGNSREREMFVQEVRRYYPFGPFLGALVKKDFVWNNCEFKKGTSVLLDLYGTNHDPRLWDHPDEFRPERFAEREENLFDMIPQGGGHAEKGHRCPGEGITIEVMKASLDFLVHQIEYDVPEQSLHYSLARMPSLPESGFVMSGIRRKS |  | similar | 1-heptadecene |  | 
3 | CYP152A1 Q85H (protein, UniProt O31440 1-417, looked up, variant Q85H) Fatty-acid peroxygenase: MNEQIPHDKSLDNSLTLLKEGYLFIKNRTERYNSDLFQARLLGKNFICMTGAEAAKVFYDTDRFQRQNALPKRVQKSLFGVNAIHGMDGSAHIHRKMLFLSLMTPPHQKRLAELMTEEWKAAVTRWEKADEVVLFEEAKEILCRVACYWAGVPLKETEVKERADDFIDMVDAFGAVGPRHWKGRRARPRAEEWIEVMIEDARAGLLKTTSGTALHEMAFHTQEDGSQLDSRMAAIELINVLRPIVAISYFLVFSALALHEHPKYKEWLRSGNSREREMFVQEVRRYYPFGPFLGALVKKDFVWNNCEFKKGTSVLLDLYGTNHDPRLWDHPDEFRPERFAEREENLFDMIPQGGGHAEKGHRCPGEGITIEVMKASLDFLVHQIEYDVPEQSLHYSLARMPSLPESGFVMSGIRRKS |  | increased | capable of carrying out this reaction | lowered | increased
